Source: PMC7884711, “Identification of efficient prokaryotic cell-penetrating peptides with applications in bacterial biotechnology” (Communications Biology, 2021)

Columns and labels:
E. coli DH5α cells [1] = assay: Penetration efficiency of TAMRA-labeled CPPs, chemical (CaCl2) treatment method, flow cytometry; format: cell-based, Escherichia coli; settings: TAMRA fluorescence intensity in E. coli, library screen of 98 CPPs
Excerpt: (§1) (Fig. 2a). […] First, we prepared electrocompetent and chemically competent cells.

HEK293 cells = settings: literature knowledge; cited from earlier work
Excerpt: To date, mostly CPPs have been studied and utilized in mammalian cells, but in this study, we studied CPPs in bacteria, E. coli. Thus, it would be very useful to find the similarities and differences of CPPs between prokaryotes and eukaryotes.

E. coli DH5α cells [2] = assay: Inhibition of bacterial cell growth by CPPs (Max OD600 relative to control); format: cell-based, Escherichia coli; settings: for Max OD (%) (Figure 3f): E. coli DH5α diluted 1/1000 in LB, 5 μg TAMRA-CPP (0.1 μg/μL), OD600 monitored 18 h, max OD of treated cells / max OD of control cells
Experimental: E. coli DH5α cells were grown until OD600 = 1 at 37 °C with shaking at 200 rpm. […] Then, cell growth (OD600) was monitored for 18 h by using the Synergy^TM H1 hybrid multi-mode microplate reader (BioTek, Vermont, USA). As a control, we used E. coli cells that were not treated with CPPs.

E. coli DH5α cells [3] = assay: Penetration efficiency of TAMRA-labeled CPPs, electroporation-based method, flow cytometry; format: cell-based, Escherichia coli; settings: library CPPs, E. coli, electroporation, Tris buffer pH 7.5, 1 h, mean of n = 3–5
Excerpt: as §1

[4] = tested on: E. coli carrying target plasmid with I-SceI recognition site; assay: Plasmid removal assay using CPP-conjugated I-SceI; format: cell-based, Escherichia coli
Excerpt: To investigate the applicability of CPPs in plasmid removal using a CPP-conjugated I-SceI restriction enzyme, we constructed three different target plasmids containing a different replication origin: a pSC101 origin (low-copy number), ColE1 origin (mid-copy number), and RSF1030 origin (high-copy number). Then, an I-SceI recognition site was inserted into the target plasmids. In addition, for the selection of plasmid-containing cells and counterselection of plasmid-free cells, the tetA gene (tetracycline resistance gene) was introduced into the target plasmids. The selection and counterselection were conducted by using tetracycline and NiCl2, respectively.
For the plasmid removal experiment, three E. coli strains carrying a target plasmid with a different replication origin were prepared. The plasmids contained an I-SceI restriction site and a replication origin (pSC101, ColE1, or RSF1030). […] Then, the buffer was replaced with 1 × CutSmart buffer, because I-SceI requires the Mg^2+ included in the CutSmart buffer[64] as a cofactor. The cells were further incubated at 37 °C for 2 h and then spread on LB agar plates containing 2 mM NiCl2. The colonies grown on NiCl2-containing plates were transferred to an LB agar plate and a tetracycline-containing LB agar plate in order to confirm whether the plasmids were completely removed from the cells.

Methylomonas sp. DH-1 = assay: Marker gene excision using CPP-conjugated Cre recombinase; format: cell-based; settings: Methylomonas sp. DH-1, 50 μL protein (0.05 μg/μL), electroporation, 4 mM NiCl2 selection
Experimental: For the marker gene excision experiment, the pIns-LKTL plasmid was transformed into Methylomonas sp. DH-1, and then the marker genes flanked with loxP sites (loxP-kan^R-tetA-loxP) were integrated into a non-coding region of the Methylomonas sp. DH-1 genome. To select correctly knocked-in cells, the transformed cells were grown on an NMS agar plate containing kanamycin (10 μg/mL) and 30% methane for 3–7 days. The knocked-in cells were harvested from the plate and washed twice with distilled water, and 50 μL of cell suspension was mixed with 50 μL of CPP-conjugated Cre recombinase (0.05 μg/μL). […] After electroporation, cells were incubated in two types of recovery buffers (20 mM Tris-HCl at pH 7.5 or NMS medium) for 3 h and then spread on NMS agar plates containing 4 mM NiCl2. The colonies grown on the NiCl2 plates were transferred to an NMS agar plate and a kanamycin-containing NMS agar plate to confirm the excision of the marker genes.

In the case of “KLPVM [CPP 63, TAMRA-labeled CPP of the 98-CPP library]”, the “Penetration efficiency (TAMRA FI)” value (E. coli DH5α cells [1]) is given as 26.6874, the “Efficiency as CPP in mammalian cells” value (HEK293 cells) is given as “highly efficient” and the “Max OD (%) (Figure 3f)” value (E. coli DH5α cells [2]; replicate 1) is given as 69.833%. For the same molecule, the “Max OD (%) (Figure 3f)” value (E. coli DH5α cells [2]; replicate 2) was 72.8601%, the “Max OD (%) (Figure 3f)” value (E. coli DH5α cells [2]; replicate 3) was 66.2839% and the “Growth rate (%)” value (E. coli DH5α cells [2]; E. coli growth with CPP, relative to control) was 69.659%. The Anti-bacterial activity (E. coli DH5α cells [2]; class (Cytotoxic / Safe), cutoff of 50%) was “Safe” and the “Penetration efficiency (TAMRA fluorescence in E. coli)” value (E. coli DH5α cells [3]) was “low efficiency”.

B1: I-SceI (No CPP): meganuclease I-SceI without CPP, control (protein, UniProt P03882 1-235, looked up)
Intron-encoded endonuclease …: MKNIKKNQVMNLGPNSKLLKEYKSQLIELNIEQFEAGIGLILGDAYIRSRDEGKTYCMQFEWKNKAYMDHVCLLYDQWVLSPPHKKERVNHLGNLVITWGAQTFKHQAFNKLANLFIVNNKKTIPNNLVENYLTPMSLAYWFMDDGGKWDYNKNSTNKSIVLNTQSFTFEEVEYLVKGLRNKFQLNCYVKINKNKPIIYIDSMSYLIFYNLIKPYLIPQMMYKLPNTISSETFLK
With B1 the “Plasmid removal efficiency (%)” value ([4]; plasmid with ColE1 origin (15–20 copies), same protocol, replicate 1) was 19.3%, the “Plasmid removal efficiency (%)” value ([4]; plasmid with ColE1 origin (15–20 copies), same protocol, replicate 2) was 13.3% and the “Plasmid removal efficiency (%)” value ([4]; plasmid with ColE1 origin (15–20 copies), same protocol, replicate 3) was 14.8%. The “Plasmid removal efficiency (%)” value ([4]; plasmid with RSF1030 origin (>100 copies), same protocol, replicate 1) was 17.57%, the “Plasmid removal efficiency (%)” value ([4]; plasmid with RSF1030 origin (>100 copies), same protocol, replicate 2) was 16.88% and the “Plasmid removal efficiency (%)” value ([4]; plasmid with RSF1030 origin (>100 copies), same protocol, replicate 3) was 17.79%. The “Plasmid removal efficiency (%)” value ([4]; plasmid with pSC101 origin (~5 copies), 50 μL protein (0.05 μg/μL), electroporation, Tris-HCl pH 7.5 3 h, CutSmart 2 h 37 °C, 2 mM NiCl2 selection, replicate 1) was 16.6%, the “Plasmid removal efficiency (%)” value ([4]; plasmid with pSC101 origin (~5 copies), 50 μL protein (0.05 μg/μL), electroporation, Tris-HCl pH 7.5 3 h, CutSmart 2 h 37 °C, 2 mM NiCl2 selection, replicate 2) was 15% and the “Plasmid removal efficiency (%)” value ([4]; plasmid with pSC101 origin (~5 copies), 50 μL protein (0.05 μg/μL), electroporation, Tris-HCl pH 7.5 3 h, CutSmart 2 h 37 °C, 2 mM NiCl2 selection, replicate 3) was 15.64%.

B2: Cre recombinase (No CPP): Cre recombinase without CPP, control (protein, UniProt P06956 1-343, looked up)
Recombinase cre: MSNLLTVHQNLPALPVDATSDEVRKNLMDMFRDRQAFSEHTWKMLLSVCRSWAAWCKLNNRKWFPAEPEDVRDYLLYLQARGLAVKTIQQHLGQLNMLHRRSGLPRPSDSNAVSLVMRRIRKENVDAGERAKQALAFERTDFDQVRSLMENSDRCQDIRNLAFLGIAYNTLLRIAEIARIRVKDISRTDGGRMLIHIGRTKTLVSTAGVEKALSLGVTKLVERWISVSGVADDPNNYLFCRVRKNGVAAPSATSQLSTRALEGIFEATHRLIYGAKDDSGQRYLAWSGHSARVGAARDMARAGVSIPEIMQAGGWTNVNIVMNYIRNLDSETGAMVRLLEDGD
For B2, the “Marker excision efficiency (%)” value (Methylomonas sp. DH-1; recovery in NMS buffer 3 h, replicate 1) was 10.353%, the “Marker excision efficiency (%)” value (Methylomonas sp. DH-1; recovery in NMS buffer 3 h, replicate 2) was 9.156% and the “Marker excision efficiency (%)” value (Methylomonas sp. DH-1; recovery in NMS buffer 3 h, replicate 3) was 9.01%. For the same molecule, the “Marker excision efficiency (%)” value (Methylomonas sp. DH-1; recovery in Tris-Cl buffer 3 h, replicate 1) was 1.75%, the “Marker excision efficiency (%)” value (Methylomonas sp. DH-1; recovery in Tris-Cl buffer 3 h, replicate 2) was 2.19% and the “Marker excision efficiency (%)” value (Methylomonas sp. DH-1; recovery in Tris-Cl buffer 3 h, replicate 3) was 1.75%.
